In IntAct's records for PubMed 26278177:

B1: DNA repair protein complementing XP-C cells (Homo sapiens), Q01831-1 (parent)
chain: MARKRAAGGEPRGRELRSQKSKAKSKARREEEEEDAFEDEKPPKKSLLSKVSQGKRKRGCSHPGGSADGPAKKKVAKVTVKSENLKVIKDEALSDGDDLRDFPSDLKKAHHLKRGATMNEDSNEEEEESENDWEEVEELSEPVLGDVRESTAFSRSLLPVKPVEIEIETPEQAKTRERSEKIKLEFETYLRRAMKRFNKGVHEDTHKVHLLCLLANGFYRNNICSQPDLHAIGLSIIPARFTRVLPRDVDTYYLSNLVKWFIGTFTVNAELSASEQDNLQTTLERRFAIYSARDDEELVHIFLLILRALQLLTRLVLSLQPIPLKSATAKGKKPSKERLTADPGGSSETSSQVLENHTKPKTSKGTKQEETFAKGTCRPSAKGKRNKGGRKKRSKPSSSEEDEGPGDKQEKATQRRPHGRERRVASRVSYKEESGSDEAGSGSDFELSSGEASDPSDEDSEPGPPKQRKAPAPQRTKAGSKSASRTHRGSHRKDPSLPAASSSSSSSKRGKKMCSDGEKAEKRSIAGIDQWLEVFCEQEEKWVCVDCVHGVVGQPLTCYKYATKPMTYVVGIDSDGWVRDVTQRYDPVWMTVTRKCRVDAEWWAETLRPYQSPFMDREKKEDLEFQAKHMDQPLPTAIGLYKNHPLYALKRHLLKYEAIYPETAAILGYCRGEAVYSRDCVHTLHSRDTWLKKARVVRLGEVPYKMVKGFSNRARKARLAEPQLREENDLGLFGYWQTEEYQPPVAVDGKVPRNEFGNVYLFLPSMMPIGCVQLNLPNLHRVARKLDIDCVQAITGFDFHGGYSHPVTDGYIVCEEFKDVLLTAWENEQAVIERKEKEKKEKRALGNWKLLAKGLLIRERLKRRYGPKSEAAAPHTDAGGGLSSDEEEGTSSQAEAARILAASWPQNREDEEKQKLKGGPKKTKREKKAAASHLFPFEQL

Variants of: B1
Conditions: with tf2h1_human GTF2H1, P32780
tf2h1_human GTF2H1, P32780, sequence (P32780 whole entry): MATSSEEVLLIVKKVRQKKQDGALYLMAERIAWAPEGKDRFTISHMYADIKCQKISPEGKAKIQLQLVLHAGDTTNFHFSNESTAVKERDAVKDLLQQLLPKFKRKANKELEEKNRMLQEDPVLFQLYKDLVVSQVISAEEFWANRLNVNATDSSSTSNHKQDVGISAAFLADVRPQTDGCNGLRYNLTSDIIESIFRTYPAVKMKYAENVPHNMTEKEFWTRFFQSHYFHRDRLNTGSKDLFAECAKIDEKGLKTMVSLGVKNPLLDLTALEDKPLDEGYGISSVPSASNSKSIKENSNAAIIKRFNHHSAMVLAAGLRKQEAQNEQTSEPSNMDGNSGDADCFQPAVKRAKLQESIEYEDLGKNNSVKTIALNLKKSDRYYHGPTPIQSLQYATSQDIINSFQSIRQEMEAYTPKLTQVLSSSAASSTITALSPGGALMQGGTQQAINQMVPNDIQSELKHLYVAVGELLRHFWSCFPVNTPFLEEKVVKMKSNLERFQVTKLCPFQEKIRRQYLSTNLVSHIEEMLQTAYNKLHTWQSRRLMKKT

Row | Variant | effect of a mutation on the interaction
1 | W133F | decreasing interaction strength
2 | E128A | decreasing interaction strength

Other lines, results leading:

Row | effect of a mutation on the interaction | Variant
3 | disrupting interaction strength | W133A
4 | decreasing interaction strength | V136A
5 | decreasing interaction strength | L139A

Variants of: B1
Conditions: with ercc3_human ERCC3, P19447
ercc3_human ERCC3, P19447, sequence (P19447 whole entry): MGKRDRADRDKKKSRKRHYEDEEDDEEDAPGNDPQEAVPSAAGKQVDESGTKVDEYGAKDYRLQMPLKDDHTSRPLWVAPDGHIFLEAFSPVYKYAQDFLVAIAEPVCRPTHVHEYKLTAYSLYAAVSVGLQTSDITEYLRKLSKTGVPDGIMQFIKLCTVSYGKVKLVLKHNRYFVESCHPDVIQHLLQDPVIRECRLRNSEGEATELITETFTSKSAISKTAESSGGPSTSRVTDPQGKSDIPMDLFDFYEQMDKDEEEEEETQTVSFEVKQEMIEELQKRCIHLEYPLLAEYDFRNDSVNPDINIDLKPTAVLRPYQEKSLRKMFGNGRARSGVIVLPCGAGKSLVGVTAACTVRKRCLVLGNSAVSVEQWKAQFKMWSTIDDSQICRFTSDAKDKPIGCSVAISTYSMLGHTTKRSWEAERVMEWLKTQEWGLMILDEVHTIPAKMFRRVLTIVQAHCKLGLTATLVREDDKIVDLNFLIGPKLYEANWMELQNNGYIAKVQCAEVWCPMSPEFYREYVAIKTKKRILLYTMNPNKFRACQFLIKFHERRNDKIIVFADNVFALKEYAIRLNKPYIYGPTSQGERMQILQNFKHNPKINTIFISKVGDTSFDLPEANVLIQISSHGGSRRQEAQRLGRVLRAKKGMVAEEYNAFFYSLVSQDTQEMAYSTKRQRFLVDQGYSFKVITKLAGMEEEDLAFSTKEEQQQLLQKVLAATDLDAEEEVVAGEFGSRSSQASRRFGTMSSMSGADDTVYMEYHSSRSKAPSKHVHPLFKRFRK

Row | effect of a mutation on the interaction | Variant
6 | decreasing interaction strength | W133A
7 | decreasing interaction strength | V136A
8 | decreasing interaction strength | W133A;V136A
